Target: the molecule itself
Test: crystal structure; purified channel in 14 mM HEGA-10, 6 mg/ml; crystallised in 10% glycerol, 90 mM HEPES pH 7, 20% PEG-400, 5% PEG-4000, 2.5% PEG-8000, 10 mM spermidine, 20 °C; space group P4212, one molecule in the asymmetric unit; 2.46 Å

B1: KirBac3.1 S129R/S205L (natural protein, Magnetospirillum magnetotacticum)
chain: MTGGMKPPARKPRILNSDGSSNITRLGLEKRGWLDDHYHDLLTVSWPVFITLITGLYLVTNALFALAYLACGDVIENARPGSFTDAFFFSVQTMATIGYGKLIPIGPLANTLVTLEALCGMLGLAVAARLIYARFTRPTAGVLFSSRMVISDFEGKPTLMMRLANLRIEQIIEADVHLVLVRSEISQEGMVFRRFHDLTLTRSRLPIFSLSWTVMHPIDHHSPIYGETDETLRNSHSEFLVLFTGHHEAFAQNVHARHAYSCDEIIWGGHFVDVFTTLPDGRRALDLGKFHEIAQ
notes: KirBac3.1, inwardly rectifying potassium (Kir) channel homolog from Magnetospirillum magnetotacticum; the final model contains 283 of 301 residues; The tetramer arises from crystallographic symmetry (one molecule in the asymmetric unit, space group P4212); also called S129R/S205L double mutant; S129R/S205L mutant channel; source: size exclusion column, detergent exchanged to HEGA-10
- binding result: binds
